To fix the notation:
B1: OR4K15 (parent)
chain: GUUAACGGUCAUAGGCCAUGGAAACUAGGAGCACCAUUUCGCUGCCAGUGAAGAAAUGAACAAAGAAAAUCUGGGCCAGGCAGGCAUCAAAAGAAAUAGUCUUGCGCUCAACCAGAAAGUCUGUAAUCAUUUUAAGGGUA

In this data set the parent is B1. In words: self-cleavage, relative activity (ratio to wild type); higher = more cleavage; in vitro, sequencing; the parent is a self-cleaving ribozyme.
Regarding A69G A89C, the self-cleavage came out at 1.65.
A69G A89G: the self-cleavage is 0.86.
Under A68U U108C stands 0.02; under A68G A95G, 1.98; under A68C A82U, 0.23.
In the case of A67G A110U, the self-cleavage is 1.46.
Take A69G A82U: the self-cleavage is 0.18.
For A69G A82G, the self-cleavage came to 0.48.
A68U A134G: the self-cleavage was 1.78.
Regarding A67G A134G, the self-cleavage came out at 1.7.
On to A69G G80A, for which the self-cleavage stood at 0.12.
In the case of A67U U131G, the self-cleavage amounted to 1.68.
Consider A67U U131C, for which the self-cleavage is 2.18.
On to U70G A95G, for which the self-cleavage worked out at 1.21.
Take A67G A140C: the self-cleavage is 1.47.
The same measure for A68U U132C: 1.76; for A68C A118G: 1.84.
On to A68G G80A, for which the self-cleavage is 0.21.
The same measure for A69U A90G: 1.31; for A68G A96G: 1.04.
Under A67G A91G stands 1.07; under A67G G138A, 0.97; under U70C U97C, 0.68.
As to A68C U124C, the self-cleavage was found to be 1.22.
Consider A66U U103C, for which the self-cleavage was 0.48.
As to A69G U127A, the self-cleavage was 1.8.
On to A69G A96G, for which the self-cleavage came to 1.52.
For the variant A69G A96C, the self-cleavage was 1.58.
Consider U70A A90G, for which the self-cleavage is 1.12.
In the case of A67U U120C, the self-cleavage stood at 1.13.
A67U U120A: the self-cleavage is 2.17.
On to A69C A114G, for which the self-cleavage was 0.21.
Regarding U70C A110G, the self-cleavage was found to be 0.06.
On to A69G A129G, for which the self-cleavage amounted to 0.87.
Consider A66U U122G, for which the self-cleavage turned out to be 2.33.
Take A67U A95G: the self-cleavage is 2.49.
The same measure for A68G U120G: 1.02; for A68G U120C: 0.65; for U70G A118G: 0.55.
As for A68U U70C, the self-cleavage amounted to 0.43.
In the case of A68C U131C, the self-cleavage worked out at 0.94.
As to U70A A89U, the self-cleavage amounted to 1.74.
As to A67G U87C, the self-cleavage was found to be 1.19.
Under U70C A91U stands 1.07; under A67G G137U, 2.03.
A68U U72A: the self-cleavage was 0.34.
The same measure for A68G C105G: 0.03; for U70C G83A: 1.57; for A67G A116C: 0.26.
A67G A116U: the self-cleavage was 0.14.
As to A67G A116G, the self-cleavage was determined as 0.71.
Turning to A68G A114G, the self-cleavage is 0.68.
Take A68G A114C: the self-cleavage was found to be 0.04.
As for A68G A114U, the self-cleavage came to 0.04.
Under A69G G99U stands 0.23.
As for A67G U72A, the self-cleavage stood at 0.26.
Turning to A67G U72C, the self-cleavage is 0.32.
Regarding A66U U131C, the self-cleavage came to 0.84.
Consider A69U A117G, for which the self-cleavage was determined as 1.48.
A69G G83A: the self-cleavage was 2.11.
In the case of A67U A129U, the self-cleavage amounted to 1.14.
As to A68G G123A, the self-cleavage was determined as 1.45.
As for U70A A82U, the self-cleavage came out at 0.24.
For the variant A67G U103C, the self-cleavage came out at 1.36.
Consider U70C A82U, for which the self-cleavage came to 0.37.
As for A69G G106A, the self-cleavage was 0.02.
Regarding U70C A95G, the self-cleavage worked out at 1.84.
The same measure for A69G A126G: 0.55; for A69G A126U: 1.33; for A66U U72A: 0.2.
Under C71A U124C stands 0.22.
With A69G G75C, the self-cleavage is 0.16.
In the case of A69G C101U, the self-cleavage is 0.26.
With U70C A126U, the self-cleavage was 0.71.
The same measure for U70C A126G: 0.96; for A67G G84U: 0.35; for U70C A129U: 0.41.
On to A68G A111G, for which the self-cleavage was found to be 0.01.
Under A68C A78G stands 0.24; under U70A U139A, 0.23; under C71G U87A, 0.21.
On to A67G A90U, for which the self-cleavage was 1.13.
On to A67G A90G, for which the self-cleavage was 0.96.
Turning to A69U U87G, the self-cleavage worked out at 0.74.
With A67U U72C, the self-cleavage was determined as 0.31.
As to A67U U72A, the self-cleavage amounted to 0.2.
As to A67U U97C, the self-cleavage was determined as 1.43.
For the variant A69G U100C, the self-cleavage amounted to 2.43.
Regarding C71U A126G, the self-cleavage is 0.32.
With A67G A126G, the self-cleavage turned out to be 1.21.
Take A69G U70A: the self-cleavage was 1.26.
The same measure for A68U U120C: 1.1.
With A68U U120A, the self-cleavage turned out to be 1.48.
Under A67G U122G stands 2.16; under A67C U87C, 1.79.
Under A67U A96G stands 1.65; under A68G A135G, 1.23; under U70A A78U, 0.43.
Under U70A A78G stands 0.33.
Regarding U70A U132C, the self-cleavage turned out to be 0.6.
In the case of A67G U120C, the self-cleavage came to 0.83.
In the case of A67G U120G, the self-cleavage was 1.4.
As to U70C A114U, the self-cleavage turned out to be 0.02.
In the case of U70C A114C, the self-cleavage came to 0.
On to A67U A89G, for which the self-cleavage was 1.74.
As for A67G A118C, the self-cleavage is 0.76.
Take C71U A95U: the self-cleavage was determined as 0.5.
For C71U A95G, the self-cleavage was 0.97.
Take C71U U72A: the self-cleavage stood at 0.19.
For the variant U70A A118G, the self-cleavage was 0.37.
Take A68G A116U: the self-cleavage was 0.21.
Under A68G G106A stands 0.02; under A67G C76U, 0.07.
Under A69U A126C stands 1.66.
Under A68G A90U stands 1.58; under A68G A90G, 1.17.
With A68G G73U, the self-cleavage was 0.07.
Take A67G C88A: the self-cleavage turned out to be 1.16.
Under A69G A95U stands 1.56; under A69C U132C, 2.58; under U70A U131C, 0.7.
Turning to A67G C107U, the self-cleavage amounted to 0.01.
As to A69U A111G, the self-cleavage came to 0.04.
On to C71U U124C, for which the self-cleavage worked out at 0.06.
Regarding U72A, the self-cleavage worked out at 0.18.
A69G U133C: the self-cleavage stood at 1.33.
Take A69G U131C: the self-cleavage worked out at 0.55.
U70A C77U: the self-cleavage is 2.04.
Consider A68C A90G, for which the self-cleavage was determined as 1.24.
Under U70C stands 0.47; under U70G, 0.88.
Regarding U70A, the self-cleavage stood at 0.83.
Turning to A67U A118U, the self-cleavage stood at 0.53.
On to A67U A110G, for which the self-cleavage is 0.25.
For the variant U70A A110U, the self-cleavage is 0.18.
Take U70A A110G: the self-cleavage came to 0.1.
Take U70C U130A: the self-cleavage worked out at 0.19.
With U70C G75A, the self-cleavage came to 0.21.
The same measure for A68G U127C: 1.05; for A68G U127A: 1.01.
As to A68G U127G, the self-cleavage came to 1.35.
A67G A114U: the self-cleavage is 0.03.
Take A67G A114G: the self-cleavage was 0.49.
Consider A68G U108A, for which the self-cleavage was 0.04.
Take A68G U108C: the self-cleavage came out at 0.01.
As for U70C A94U, the self-cleavage was determined as 0.2.
Under A69G C107U stands 0.03; under U70A A116G, 0.59; under A67C A96U, 2.39.
The same measure for A67G A96G: 1.53.
In the case of A67G A96U, the self-cleavage stood at 1.03.
Take U70A A95G: the self-cleavage stood at 1.98.
Take A69G A90G: the self-cleavage worked out at 1.43.
On to A67U A69G, for which the self-cleavage is 1.13.
For the variant U70C U102A, the self-cleavage is 0.33.
For the variant A68U A91G, the self-cleavage is 1.35.
Under U70C A98U stands 0.72; under C71U A135C, 0.42; under A68U A90G, 1.18.
As to A68G, the self-cleavage is 0.98.
With A68U, the self-cleavage came out at 1.83.
On to A68C, for which the self-cleavage was determined as 1.73.
Turning to U70A U103A, the self-cleavage came out at 0.67.
With A69G A118G, the self-cleavage came out at 0.98.
Consider A68G U70C, for which the self-cleavage stood at 0.51.
Take A66U U70A: the self-cleavage was 0.62.
With C71A U132C, the self-cleavage came to 0.58.
